Data published in US20260144882A1 (BIO THERA SOLUTIONS, published 2026).

Target: T1, human Nectin-4 extracellular antigen hNectin-4-His (human, UniProt Q96NY8 32-349)
T1 construct: C-terminal 8xHis tag included
T1 sequence: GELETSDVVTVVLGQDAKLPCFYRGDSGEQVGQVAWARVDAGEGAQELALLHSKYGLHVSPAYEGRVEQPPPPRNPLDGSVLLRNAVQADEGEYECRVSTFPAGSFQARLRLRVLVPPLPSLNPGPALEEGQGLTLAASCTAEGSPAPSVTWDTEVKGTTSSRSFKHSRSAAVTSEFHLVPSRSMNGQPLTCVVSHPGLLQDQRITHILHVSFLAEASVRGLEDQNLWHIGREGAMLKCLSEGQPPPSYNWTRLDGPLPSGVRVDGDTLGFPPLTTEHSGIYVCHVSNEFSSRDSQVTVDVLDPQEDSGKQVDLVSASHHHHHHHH
Assay: ELISA, phage scFv supernatant 1:50

Row | Binder | OD value
1 | 10F4-1B2 scFv (scFv, V domains shown, phage clone supernatant) VH: EVQLVESGGGLVQPGGSLRLSCAASGFSFGNYWMSWVRQAPGKGLEWVSGIDGHSSYAFYADSVKGRFTISRDNSKNTLYLQMNSLRAEDTAVYYCAREYSDVVDYVSVRTPLDYWGQGTLVTVSS VL: DIQMTQSPSSLSASVGDRVTITCRASQGISSYLAWYQQKPGKAPKLLIYAASSLQSGVPSRFSGSGSGTDFTLTISSLQPEDFATYYCQQHYTTPPTFGQGTKVEIKR | 1.64 OD
2 | 10F4-1B5 scFv (scFv, V domains shown, phage clone supernatant) VH: EVQLVESGGGLVQPGGSLRLSCAASGFNFTDYWMSWVRQAPGKGLEWVSSIIGDDSTNHYADSVKGRFTISRDNSKNTLYLQMNSLRAEDTAVYYCAREYSDVVDYVSVRTPLDYWGQGTLVTVSS VL: DIQMTQSPSSLSASVGDRVTITCRASQGISSYLAWYQQKPGKAPKLLIYAASSLQSGVPSRFSGSGSGTDFTLTISSLQPEDFATYYCQQHYTTPPTFGQGTKVEIKR | 1.53 OD
3 | 10F4-1B7 scFv (scFv, V domains shown, phage clone supernatant) VH: EVQLVESGGGLVQPGGSLRLSCAASGFNFSGFDMSWVRQAPGKGLEWVSGIKAYKSTADYADSVKGRFTISRDNSKNTLYLQMNSLRAEDTAVYYCAREYSDVVDYVSVRTPLDYWGQGTLVTVSS VL: DIQMTQSPSSLSASVGDRVTITCRASQGISSYLAWYQQKPGKAPKLLIYAASSLQSGVPSRFSGSGSGTDFTLTISSLQPEDFATYYCQQHYTTPPTFGQGTKVEIKR | 1.6 OD
4 | 10F4-1C3 scFv (scFv, V domains shown, phage clone supernatant) VH: EVQLVESGGGLVQPGGSLRLSCAASGYSFSDYWMSWVRQAPGKGLEWVSSIKQTGGVKHYADSVKGRFTISRDNSKNTLYLQMNSLRAEDTAVYYCAREYSDVVDYVSVRTPLDYWGQGTLVTVSS VL: DIQMTQSPSSLSASVGDRVTITCRASQGISSYLAWYQQKPGKAPKLLIYAASSLQSGVPSRFSGSGSGTDFTLTISSLQPEDFATYYCQQHYTTPPTFGQGTKVEIKR | 1.59 OD
5 | 10F4-1C4 scFv (scFv, V domains shown, phage clone supernatant) VH: EVQLVESGGGLVQPGGSLRLSCAASGFNFTDYWMSWVRQAPGKGLEWVSSIIGDDSTNHYADSVKGRFTISRDNSKNTLYLQMNSLRAEDTAVYYCAREYSDVVDYVSVRTPLDYWGQGTLVTVSS VL: DIQMTQSPSSLSASVGDRVTITCRASQGISSYLAWYQQKPGKAPKLLIYAASSLQSGVPSRFSGSGSGTDFTLTISSLQPEDFATYYCQQHYTTPPTFGQGTKVEIKR | 1.46 OD
6 | 10F4-1C10 scFv (scFv, V domains shown, phage clone supernatant) VH: EVQLVESGGGLVQPGGSLRLSCAASGYNFGSYDMSWVRQAPGKGLEWVSGIKTYGGNTHYADSVKGRFTISRDNSKNTLYLQMNSLRAEDTAVYYCAREYSDVVDYVSVRTPLDYWGQGTLVTVSS VL: DIQMTQSPSSLSASVGDRVTITCRASQGISSYLAWYQQKPGKAPKLLIYAASSLQSGVPSRFSGSGSGTDFTLTISSLQPEDFATYYCQQHYTTPPTFGQGTKVEIKR | 1.52 OD
7 | 10F4-1D3 scFv (scFv, V domains shown, phage clone supernatant) VH: EVQLVESGGGLVQPGGSLRLSCAASGFSFYDYDMSWVRQAPGKGLEWVSSIIQSGSTAFYADSVKGRFTISRDNSKNTLYLQMNSLRAEDTAVYYCAREYSDVVDYVSVRTPLDYWGQGTLVTVSS VL: DIQMTQSPSSLSASVGDRVTITCRASQGISSYLAWYQQKPGKAPKLLIYAASSLQSGVPSRFSGSGSGTDFTLTISSLQPEDFATYYCQQHYTTPPTFGQGTKVEIKR | 1.52 OD
8 | 10F4-1D11 scFv (scFv, V domains shown, phage clone supernatant) VH: EVQLVESGGGLVQPGGSLRLSCAASGFIFSDFDMSWVRQAPGKGLEWVSGIKQSSAGINYADSVKGRFTISRDNSKNTLYLQMNSLRAEDTAVYYCAREYSDVVDYVSVRTPLDYWGQGTLVTVSS VL: DIQMTQSPSSLSASVGDRVTITCRASQGISSYLAWYQQKPGKAPKLLIYAASSLQSGVPSRFSGSGSGTDFTLTISSLQPEDFATYYCQQHYTTPPTFGQGTKVEIKR | 1.46 OD
9 | 10F4-1E10 scFv (scFv, V domains shown, phage clone supernatant) VH: EVQLVESGGGLVQPGGSLRLSCAASGDTFDTYAMSWVRQAPGKGLEWVSGISQWGAYASYADSVKGRFTISRDNSKNTLYLQMNSLRAEDTAVYYCAREYSDVVDYVSVRTPLDYWGQGTLVTVSS VL: DIQMTQSPSSLSASVGDRVTITCRASQGISSYLAWYQQKPGKAPKLLIYAASSLQSGVPSRFSGSGSGTDFTLTISSLQPEDFATYYCQQHYTTPPTFGQGTKVEIKR | 1.29 OD
10 | 10F4-1E12 scFv (scFv, V domains shown, phage clone supernatant) VH: EVQLVESGGGLVQPGGSLRLSCAASGYNFSSYDMSWVRQAPGKGLEWVSGISDTGDYANYADSVKGRFTISRDNSKNTLYLQMNSLRAEDTAVYYCAREYSDVVDYVSVRTPLDYWGQGTLVTVSS VL: DIQMTQSPSSLSASVGDRVTITCRASQGISSYLAWYQQKPGKAPKLLIYAASSLQSGVPSRFSGSGSGTDFTLTISSLQPEDFATYYCQQHYTTPPTFGQGTKVEIKR | 1.52 OD
11 | 10F4-1F2 scFv (scFv, V domains shown, phage clone supernatant) VH: EVQLVESGGGLVQPGGSLRLSCAASGYNFTNYYMSWVRQAPGKGLEWVSSISAYSDNRNYADSVKGRFTISRDNSKNTLYLQMNSLRAEDTAVYYCAREYSDVVDYVSVRTPLDYWGQGTLVTVSS VL: DIQMTQSPSSLSASVGDRVTITCRASQGISSYLAWYQQKPGKAPKLLIYAASSLQSGVPSRFSGSGSGTDFTLTISSLQPEDFATYYCQQHYTTPPTFGQGTKVEIKR | 1.4 OD
12 | 10F4-1F8 scFv (scFv, V domains shown, phage clone supernatant) VH: EVQLVESGGGLVQPGGSLRLSCAASGYTFTDYDMSWVRQAPGKGLEWVSSIITDGGGAFYADSVKGRFTISRDNSKNTLYLQMNSLRAEDTAVYYCAREYSDVVDYVSVRTPLDYWGQGTLVTVSS VL: DIQMTQSPSSLSASVGDRVTITCRASQGISSYLAWYQQKPGKAPKLLIYAASSLQSGVPSRFSGSGSGTDFTLTISSLQPEDFATYYCQQHYTTPPTFGQGTKVEIKR | 1.49 OD
13 | 10F4-1F9 scFv (scFv, V domains shown, phage clone supernatant) VH: EVQLVESGGGLVQPGGSLRLSCAASGFSFGGFDMSWVRQAPGKGLEWVSGIKTYGGYRSYADSVKGRFTISRDNSKNTLYLQMNSLRAEDTAVYYCAREYSDVVDYVSVRTPLDYWGQGTLVTVSS VL: DIQMTQSPSSLSASVGDRVTITCRASQGISSYLAWYQQKPGKAPKLLIYAASSLQSGVPSRFSGSGSGTDFTLTISSLQPEDFATYYCQQHYTTPPTFGQGTKVEIKR | 1.48 OD
14 | 10F4-1G5 scFv (scFv, V domains shown, phage clone supernatant) VH: EVQLVESGGGLVQPGGSLRLSCAASGYTFDSSWMSWVRQAPGKGLEWVSSIDAYGDYNFYADSVKGRFTISRDNSKNTLYLQMNSLRAEDTAVYYCAREYSDVVDYVSVRTPLDYWGQGTLVTVSS VL: DIQMTQSPSSLSASVGDRVTITCRASQGISSYLAWYQQKPGKAPKLLIYAASSLQSGVPSRFSGSGSGTDFTLTISSLQPEDFATYYCQQHYTTPPTFGQGTKVEIKR | 1.41 OD
15 | 10F4-1G7 scFv (scFv, V domains shown, phage clone supernatant) VH: EVQLVESGGGLVQPGGSLRLSCAASGYNFGDYDMSWVRQAPGKGLEWVSSIIGHGDTKFYADSVKGRFTISRDNSKNTLYLQMNSLRAEDTAVYYCAREYSDVVDYVSVRTPLDYWGQGTLVTVSS VL: DIQMTQSPSSLSASVGDRVTITCRASQGISSYLAWYQQKPGKAPKLLIYAASSLQSGVPSRFSGSGSGTDFTLTISSLQPEDFATYYCQQHYTTPPTFGQGTKVEIKR | 1.54 OD
16 | 10F4-1G8 scFv (scFv, V domains shown, phage clone supernatant) VH: EVQLVESGGGLVQPGGSLRLSCAASGFNFSDFDMSWVRQAPGKGLEWVSVIKPSGDYINYADSVKGRFTISRDNSKNTLYLQMNSLRAEDTAVYYCAREYSDVVDYVSVRTPLDYWGQGTLVTVSS VL: DIQMTQSPSSLSASVGDRVTITCRASQGISSYLAWYQQKPGKAPKLLIYAASSLQSGVPSRFSGSGSGTDFTLTISSLQPEDFATYYCQQHYTTPPTFGQGTKVEIKR | 1.52 OD
17 | 10F4-1H1 scFv (scFv, V domains shown, phage clone supernatant) VH: EVQLVESGGGLVQPGGSLRLSCAASGYSFGNFDMSWVRQAPGKGLEWVSGIKQYKGYTSYADSVKGRFTISRDNSKNTLYLQMNSLRAEDTAVYYCAREYSDVVDYVSVRTPLDYWGQGTLVTVSS VL: DIQMTQSPSSLSASVGDRVTITCRASQGISSYLAWYQQKPGKAPKLLIYAASSLQSGVPSRFSGSGSGTDFTLTISSLQPEDFATYYCQQHYTTPPTFGQGTKVEIKR | 1.61 OD
18 | 10F4-1H4 scFv (scFv, V domains shown, phage clone supernatant) VH: EVQLVESGGGLVQPGGSLRLSCAASGFNFTNYWMSWVRQAPGKGLEWVSAISGTGGYTYYADSVKGRFTISRDNSKNTLYLQMNSLRAEDTAVYYCAREYSDVVDYVSVRTPLDYWGQGTLVTVSS VL: DIQMTQSPSSLSASVGDRVTITCRASQGISSYLAWYQQKPGKAPKLLIYAASSLQSGVPSRFSGSGSGTDFTLTISSLQPEDFATYYCQQHYTTPPTFGQGTKVEIKR | 1.38 OD
19 | 10F4-1H6 scFv (scFv, V domains shown, phage clone supernatant) VH: EVQLVESGGGLVQPGGSLRLSCAASGFNFYDYDMSWVRQAPGKGLEWVSGIKTHSGGNGYADSVKGRFTISRDNSKNTLYLQMNSLRAEDTAVYYCAREYSDVVDYVSVRTPLDYWGQGTLVTVSS VL: DIQMTQSPSSLSASVGDRVTITCRASQGISSYLAWYQQKPGKAPKLLIYAASSLQSGVPSRFSGSGSGTDFTLTISSLQPEDFATYYCQQHYTTPPTFGQGTKVEIKR | 1.48 OD
20 | 10F4-1H7 scFv (scFv, V domains shown, phage clone supernatant) VH: EVQLVESGGGLVQPGGSLRLSCAASGYSFDTYDMSWVRQAPGKGLEWVSGIKQYKGYTSYADSVKGRFTISRDNSKNTLYLQMNSLRAEDTAVYYCAREYSDVVDYVSVRTPLDYWGQGTLVTVSS VL: DIQMTQSPSSLSASVGDRVTITCRASQGISSYLAWYQQKPGKAPKLLIYAASSLQSGVPSRFSGSGSGTDFTLTISSLQPEDFATYYCQQHYTTPPTFGQGTKVEIKR | 1.49 OD
